Data reported in patent US20220267441A1 (VOR BIOPHARMA, published 2022).
Substitutions are numbered along the chain they refer to. In names and notes the source's numbering stands. Read-outs that look alike come from different tables or passages of the source.

Columns and labels:
[1] = molecular target: T1, cynomolgus CD45 on live cells (primary cynomolgus PBMCs) (cynomolgus monkey); test: flow cytometry on PBMCs; cyno EC50 against human EC50
T1 construct: Endogenous CD45 on PBMCs; also called cyno CD45; Cyno PBMC
T1 chain: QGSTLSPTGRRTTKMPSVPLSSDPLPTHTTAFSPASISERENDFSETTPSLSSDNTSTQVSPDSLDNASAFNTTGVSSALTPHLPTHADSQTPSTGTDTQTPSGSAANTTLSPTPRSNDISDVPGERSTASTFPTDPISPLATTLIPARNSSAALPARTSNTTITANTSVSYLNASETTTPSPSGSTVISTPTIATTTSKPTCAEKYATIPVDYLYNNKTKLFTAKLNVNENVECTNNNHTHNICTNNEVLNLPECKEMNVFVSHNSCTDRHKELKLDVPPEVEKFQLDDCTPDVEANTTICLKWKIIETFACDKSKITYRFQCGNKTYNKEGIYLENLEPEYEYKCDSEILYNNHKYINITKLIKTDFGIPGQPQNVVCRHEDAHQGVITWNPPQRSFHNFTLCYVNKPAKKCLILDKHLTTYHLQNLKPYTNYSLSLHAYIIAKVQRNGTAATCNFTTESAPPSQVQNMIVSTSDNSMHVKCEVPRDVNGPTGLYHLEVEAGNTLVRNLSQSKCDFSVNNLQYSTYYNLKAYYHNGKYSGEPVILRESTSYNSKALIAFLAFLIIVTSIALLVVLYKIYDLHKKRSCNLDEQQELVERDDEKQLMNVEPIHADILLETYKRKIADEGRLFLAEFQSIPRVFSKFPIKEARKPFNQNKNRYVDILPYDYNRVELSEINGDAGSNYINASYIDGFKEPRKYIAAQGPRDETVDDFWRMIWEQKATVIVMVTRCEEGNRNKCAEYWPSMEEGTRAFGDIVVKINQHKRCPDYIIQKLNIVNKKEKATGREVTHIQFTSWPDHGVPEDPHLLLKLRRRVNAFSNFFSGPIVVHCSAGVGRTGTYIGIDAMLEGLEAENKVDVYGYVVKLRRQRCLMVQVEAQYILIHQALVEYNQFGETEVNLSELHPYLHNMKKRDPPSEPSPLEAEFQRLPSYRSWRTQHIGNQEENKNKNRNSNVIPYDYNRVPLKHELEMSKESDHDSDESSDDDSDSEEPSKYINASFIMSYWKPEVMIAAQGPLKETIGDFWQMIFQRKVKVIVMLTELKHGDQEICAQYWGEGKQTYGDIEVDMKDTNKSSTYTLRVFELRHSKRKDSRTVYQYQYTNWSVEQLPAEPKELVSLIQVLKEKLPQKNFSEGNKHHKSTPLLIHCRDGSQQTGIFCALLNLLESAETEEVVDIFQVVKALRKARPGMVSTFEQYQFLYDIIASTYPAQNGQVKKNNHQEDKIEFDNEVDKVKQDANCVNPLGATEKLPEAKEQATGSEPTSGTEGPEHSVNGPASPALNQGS

[2] = molecular target: T2, human CD45 on live cells (REH-1 cells, primary human PBMCs) (human, UniProt P08575 26-1306); test: flow cytometry on human PBMCs, overnight 37 C, AF488 anti-human IgG
T2 construct: Endogenous CD45
T2 sequence: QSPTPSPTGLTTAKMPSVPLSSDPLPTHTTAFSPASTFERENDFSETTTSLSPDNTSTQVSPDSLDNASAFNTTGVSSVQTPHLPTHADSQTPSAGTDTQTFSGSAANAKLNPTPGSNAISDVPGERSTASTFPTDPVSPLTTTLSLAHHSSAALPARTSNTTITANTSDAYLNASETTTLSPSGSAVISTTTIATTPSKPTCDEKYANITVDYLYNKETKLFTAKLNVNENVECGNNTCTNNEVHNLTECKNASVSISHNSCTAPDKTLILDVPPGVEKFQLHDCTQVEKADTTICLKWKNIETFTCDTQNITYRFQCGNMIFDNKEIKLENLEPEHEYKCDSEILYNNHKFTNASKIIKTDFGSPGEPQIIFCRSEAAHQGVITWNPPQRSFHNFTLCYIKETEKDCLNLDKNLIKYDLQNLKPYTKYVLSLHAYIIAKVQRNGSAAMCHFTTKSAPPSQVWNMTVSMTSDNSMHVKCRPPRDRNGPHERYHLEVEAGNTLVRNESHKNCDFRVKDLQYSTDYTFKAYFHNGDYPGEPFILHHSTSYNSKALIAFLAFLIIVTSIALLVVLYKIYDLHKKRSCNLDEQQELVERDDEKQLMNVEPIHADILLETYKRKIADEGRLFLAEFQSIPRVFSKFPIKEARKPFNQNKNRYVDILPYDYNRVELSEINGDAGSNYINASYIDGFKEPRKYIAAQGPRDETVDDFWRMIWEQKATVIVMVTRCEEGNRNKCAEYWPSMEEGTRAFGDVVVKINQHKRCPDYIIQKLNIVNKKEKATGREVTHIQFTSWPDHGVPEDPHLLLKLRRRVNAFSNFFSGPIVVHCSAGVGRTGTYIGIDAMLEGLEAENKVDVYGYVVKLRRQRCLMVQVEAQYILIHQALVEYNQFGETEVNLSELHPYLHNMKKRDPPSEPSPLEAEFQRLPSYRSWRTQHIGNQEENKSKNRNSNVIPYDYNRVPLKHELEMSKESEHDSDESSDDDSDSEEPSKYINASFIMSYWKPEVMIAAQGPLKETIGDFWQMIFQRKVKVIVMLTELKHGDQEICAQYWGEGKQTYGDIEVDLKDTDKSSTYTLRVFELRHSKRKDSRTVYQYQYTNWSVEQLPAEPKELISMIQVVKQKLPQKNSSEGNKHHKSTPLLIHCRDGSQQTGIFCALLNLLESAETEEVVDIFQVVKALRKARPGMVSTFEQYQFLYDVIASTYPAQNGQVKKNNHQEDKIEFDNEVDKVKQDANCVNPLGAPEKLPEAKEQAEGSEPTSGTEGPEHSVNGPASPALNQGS

[3] = molecular target: T1, cynomolgus CD45 on live cells (primary …); test: flow cytometry on cynomolgus PBMCs, overnight 37 C, AF488 anti-human IgG
[4] = molecular target: T1, cynomolgus CD45 on live cells (primary …); test: flow cytometry on PBMCs; cyno EC50 against human EC50
[5] = molecular target: T1, cynomolgus CD45 on live cells (primary …); test: as above
[6] = molecular target: T2, human CD45 on live cells (REH-1 cells, …); test: flow cytometry on human PBMCs, overnight 37 C, AF488 anti-human IgG; remark: listed apart in the source
[7] = molecular target: T2, human CD45 on live cells (REH-1 cells, …); test: as above; remark: listed apart in the source
[8] = molecular target: T1, cynomolgus CD45 on live cells (primary …); test: flow cytometry on cynomolgus PBMCs, overnight 37 C, AF488 anti-human IgG
[9] = molecular target: T1, cynomolgus CD45 on live cells (primary …); test: as above
[10] = molecular target: T3, purified human CD45 ectodomain (human CD45RABC antigen) (human, UniProt P08575 26-577); test: BLI (Octet Red96), antibody on anti-human Fc sensor, 100 nM human CD45 ectodomain, 1:1 fit
T3 construct: also called hCD45
T3 sequence: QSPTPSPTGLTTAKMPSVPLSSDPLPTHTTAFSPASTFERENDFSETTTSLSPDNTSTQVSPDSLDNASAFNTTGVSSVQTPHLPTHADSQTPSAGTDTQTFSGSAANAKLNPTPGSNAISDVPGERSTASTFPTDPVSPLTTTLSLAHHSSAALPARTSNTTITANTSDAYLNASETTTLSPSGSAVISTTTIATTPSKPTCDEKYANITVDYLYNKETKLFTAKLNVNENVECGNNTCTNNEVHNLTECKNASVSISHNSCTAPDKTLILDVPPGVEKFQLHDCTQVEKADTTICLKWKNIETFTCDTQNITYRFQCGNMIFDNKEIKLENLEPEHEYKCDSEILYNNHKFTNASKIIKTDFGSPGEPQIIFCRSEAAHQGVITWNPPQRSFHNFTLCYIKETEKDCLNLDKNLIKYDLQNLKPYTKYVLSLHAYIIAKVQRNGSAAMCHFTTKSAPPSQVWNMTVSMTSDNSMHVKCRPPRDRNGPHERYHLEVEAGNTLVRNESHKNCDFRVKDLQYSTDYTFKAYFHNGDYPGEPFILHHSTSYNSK

[11] = molecular target: T3, purified human CD45 ectodomain (human …); test: BLI (Octet Red96), IgG on anti-human Fc sensor, 100 nM CD45 ectodomain, 1:1 fit
[12] = molecular target: T2, human CD45 on live cells (REH-1 cells, …); test: flow cytometry on REH-1 cells, overnight 37 C, AF488 anti-human IgG
[13] = molecular target: T2, human CD45 on live cells (REH-1 cells, …); test: flow cytometry on human PBMCs, overnight 37 C, AF488 anti-human IgG; remark: listed apart in the source
[14] = molecular target: T1, cynomolgus CD45 on live cells (primary …); test: flow cytometry on cynomolgus PBMCs, overnight 37 C, AF488 anti-human IgG

B1: AbC_D265C_LALA_H435A (antibody, human IgG1, kappa, L234A L235A, V domains shown)
VH: EVQLVESGGGLVQPGGSLRLSCAASGFTFNNYWMTWVRQAPGKGLEWVSSISSSGGSIYYPDSVKDRFTISRDNAKNSLYLQMNSLRAEDMAVYYCARLYYYDGGGDAWGQGTLVTVSS
VL: GIQMTQSPSSLSASVGDRVTITCKASQDINKYLDWYQQKPGKAPKLLIYNTNNLHTGIPSRFSGSGSGTDYTLTISSLQPEDFATYYCLQHISRWTFGGGTKVEIKR
notes: also called Fc variant of AbC
In the case of B1, the “Cyno/Human Ratio (EC50)” value [1] is reported as 1.49 ratio, the EC50 [2] is reported as 2.2 nM and the EC50 [3] is reported as 3.3 nM.

B2: Antibody B (AbB) (antibody, IgG1, V domains shown)
VH: EVQLVESGGGLVQPGGSLRLSCAASGFTFTNFWMAWIRQAPGKGLEWVASISSSGGSIYYPDSVKDRFTISRDNSKNTLYLQMNSLRAEDTAVYYCVKFHHYSGGGDAWGQGTLVTVSS
VL: DIQMTQSPSSLSASVGDRVTITCKASQNINKYLDWYQQKPGKAPKLLIHYTNNLHTGIPSRFSGSGSGTDYTLTISSLQPEDFATYYCLQHSSRWTFGGGTKVEIK
notes: also called humanized clone AbB
B2 was tested, and the “Fold Cyno vs Human (EC50)” value [4] was 1.7 fold, the “Fold Cyno v/s Human (EC50)” value [5] was 1.9 fold and the EC50 [6] was 0.67 nM. For the same binder, the EC50 [7] was 0.76 nM, the EC50 [8] was 1.12 nM and the EC50 [9] was 1.42 nM. It also gave a Kd [10] of 5.46 nM, a koff [10] of 0.000239 s⁻¹ and a kon [10] of 43800 M⁻¹ s⁻¹.

B3: AbB_D265C_LALA_H435A (antibody, human IgG1, kappa, L234A L235A, V domains shown)
VH: B2 VH
VL: B1 VL with G1D, D28N, Y49H, N50Y, I92S
notes: also called Fc variant of AbB
In the case of B3, the “Cyno/Human Ratio (EC50)” value [1] is reported as 1.36 ratio, the EC50 [2] is reported as 2.2 nM and the EC50 [3] is reported as 2.9 nM.

B4: Antibody 1 (Ab1) (antibody, V domains shown)
VH: QVQLVESGGGLVKPGGSLRLSCAASGFTFSSYSMNWVRQAPGKGLEWVSYISSSSSTIYYADSVKGRFTISRDNAKNSLYLQMNSLRAEDTAVYYCARGGQYYYDSSRYGEVAFDIWGQGTMVTVSS
VL: not shown
notes: Fully human IgG from yeast display; also called Parent 1; parent clone Ab1
Binder B4 has a koff [11] of 0.0499 s⁻¹ and a kon [11] of 458000 M⁻¹ s⁻¹.

B5: Ab7 (D265C LALA H435A) (antibody, human IgG1, kappa, L234A L235A, V domains shown)
VH: B4 VH with S30G, S31G, S53I, S55G, S56A, Y59T, R108D
VL: DIVMTQSPLSLPVTPGEPASISCRSSQSLVSSGYNYLDWYLQKPGQSPQLLIYFGSSRASGVPDRFSGSGSGTDFTLKISRVEAEDVGVYYCMQRRRTPPFTFGGGTKVEIKR
B5 was tested, and the EC50 [12] was 0.2 nM, the EC50 [13] was 1 nM and the EC50 [14] was 1.3 nM.

B6: Ab5 (D265C LALA H435A) (antibody, human IgG1, kappa, L234A L235A, V domains shown)
VH: B4 VH with Q1E, K13Q, S30E, S31A, S53L, S55G, S56A, Y59H, D105T, R108D
VL: DIVMTQSPLSLPVTPGEPASISCRSSQSLVSSGYNYLDWYLQKPGQSPQLLIYFGSSRASGVPDRFSGSGSGTDFTLKISRVEAEDVGVYYCMQRRRTPWSFGGGTKVEIKR
Binder B6 has an EC50 [12] of 0.3 nM, an EC50 [13] of 1.4 nM and an EC50 [14] of 1.3 nM.

B7: AbA_D265C_LALA_H435A (antibody, human IgG1, kappa, L234A L235A, V domains shown)
VH: EVQLLESGGGLVQPGGSLRLSCAASGFTFNNYWMTWVRQAPGKGLEWVSSISSSGGSIYYPDRVKGRFTISRDNSKNTLYLQMNSLRAEDTAVYYCARDERWAGAMDAWGQGTTVTVSS
VL: DIQMTQSPSSLSASVGDRVTITCKASQNINKNLDWYQQKPGKAPKLLIYETNNLQTGVPSRFSGSGSGTDFTLTISSLQPEDFATYYCYQHNSRFTFGQGTKLEIKR
notes: also called Fc variant of AbA
With B7 the “Cyno/Human Ratio (EC50)” value [1] was 1.49 ratio, the EC50 [2] was 2.3 nM and the EC50 [3] was 3.4 nM.
